Numbering of substitutions follows the chain as printed.
Experiments:
[1] = target: T1, human CD70 expressed on the cell surface (human, UniProt P32970 1-193); assay: Scatchard analysis, 125I-labelled antibody on CHO cells transfected with full length CD70
T1 construct: also called full length CD70 on transfected CHO cells
T1 sequence: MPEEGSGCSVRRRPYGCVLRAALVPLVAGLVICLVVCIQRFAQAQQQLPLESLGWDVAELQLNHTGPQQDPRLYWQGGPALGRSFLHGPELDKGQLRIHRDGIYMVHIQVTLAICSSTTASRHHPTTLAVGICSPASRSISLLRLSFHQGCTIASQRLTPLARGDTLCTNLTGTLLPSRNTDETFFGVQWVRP
Experimental: CHO cells were transfected with full length CD70 using standard techniques and grown in RPMI media containing 10% fetal bovine serum (FBS). The cells were trypsinized and washed once in Tris based binding buffer (24 mM Tris pH 7.2, 137 mM NaCl, 2.7 mM KCl, 2 mM Glucose, 1 mM CaCl₂, 1 mM MgCl₂, 0.1% BSA) and the cells were adjusted to 2×10⁶ cells/ml in binding buffer. Millipore plates (MAFB NOB) were coated with 1% nonfat dry milk in water and stored a 4° C. overnight. The plates were washed three times with 0.2 ml of binding buffer. Fifty microliters of buffer alone was added to the maximum binding wells (total binding). Twenty-five microliters of buffer alone was added to the control wells (non-specific binding). […] Varying concentrations of unlabeled antibody at 100 fold excess was added in a volume of 25 μl to control wells and 25 μl of CD70 transfected CHO cells (2×10⁶ cells/ml) in binding buffer were added to all wells. The plates were incubated for 2 hours at 200 RPM on a shaker at 4° C. At the completion of the incubation the Millipore plates were washed three times with 0.2 ml of cold wash buffer (24 mM Tris pH 7.2, 500 mM NaCl, 2.7 mM KCl, 2 mM Glucose, 1 mM CaCl₂, 1 mM MgCl₂, 0.1% BSA.). The filters were removed and counted in a gamma counter. Evaluation of equilibrium binding was performed using single site binding parameters with the Prism software (San Diego, Calif.).

[2] = target: T1, human CD70 expressed on the cell surface; assay: flow cytometry titration on 786-O cells, PE anti-human IgG
Experimental: (§1) Binding of the anti-CD70 human monoclonal antibodies was assessed by incubating 5×10⁵ cells with antibody at a starting concentration of 50 μg/ml and serially diluting the antibody at a 1:3 dilution. The cells were washed and binding was detected with a PE-labeled anti-human IgG Ab. Flow cytometric analyses were performed using a FACSCalibur flow cytometry (Becton Dickinson, San Jose, Calif.).

[3] = target: T1, human CD70 expressed on the cell surface; assay: flow cytometry titration on A498 cells, PE anti-human IgG
Experimental: as §1

[4] = target: T2, recombinant human CD70 fused with a dual myc-His tag (human, UniProt P32970 39-193); assay: ELISA on plate-coated recombinant myc-tagged CD70, anti-human IgG-HRP detection
T2 construct: also called recombinant myc-tagged CD70; CD70-myc-his; not shown: dual myc-His tag
T2 sequence: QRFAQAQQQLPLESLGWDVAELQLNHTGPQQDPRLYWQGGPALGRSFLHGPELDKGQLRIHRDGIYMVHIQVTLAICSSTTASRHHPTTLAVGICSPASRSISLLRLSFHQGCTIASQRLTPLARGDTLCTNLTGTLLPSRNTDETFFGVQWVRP
Experimental: Standard ELISA procedures were performed. The anti-CD70 human monoclonal antibodies were added at a concentration of 1 μg/ml and titrated down at 1:2 serial dilutions. Goat-anti-human IgG (Fc or kappa chain-specific) polyclonal antibody conjugated with horseradish peroxidase (HRP) was used as secondary antibody.

[5] = target: T1, human CD70 expressed on the cell surface; assay: cell-based or functional assay
[6] = target: T1, human CD70 expressed on the cell surface; assay: flow cytometry on Raji cells, MFI
Experimental: as §1, with “dilution. An isotype control antibody was used as a negative control.” for “dilution.”

[7] = target: T1, human CD70 expressed on the cell surface; assay: flow cytometry on Granta 519 cells, MFI
Experimental: as §1, with “dilution. An isotype control antibody was used as a negative control.” for “dilution.”

[8] = system: CD70-mediated CD27 signaling induced proliferation of human CD3+ T cells; assay: Functional blocking of CD70 costimulated T cell proliferation; type: cell-based; conditions: anti-CD3 (OKT3), CHO cells with mouse CD32 and human CD70, 3 days
Excerpt: This example describes the analysis and characterization of the functional blocking of CD70 costimulated T cell proliferation by anti-CD70 antibodies 1F4 IgG1, 1F4 IgG4, 2H5, 2H5 F(ab′)2 and 2H5 Fab.
Human CD3^+ T cells were isolated from cryopreserved PBMC using MACS CD3 Microbeads and then cultured at 2×10^6 cells/ml in RPMI-1640 complete media+10% heat inactivated FCS in the presence of Mitomycin C treated CHO cells stably transfected with both mouse CD32 and human CD70. Cells were stimulated with […] anti-CD3 (clone OKT3) for 3 days, 1 μCi/well of ^3H-Thymidine was added for 6 hours and the cells were harvested. Proliferation was measured as CPM incorporated by scintillation counting.

[9] = target: human CD16 (FcRγIII) on effector cells (human, UniProt P08637 17-254); assay: cell-based or functional assay
[10] = target: T1, human CD70 expressed on the cell surface; assay: flow cytometry on 786-0 cells, goat F(ab')2 anti-human IgG(Fc)-PE
Experimental: The cells were incubated for 30 minutes on ice, washed twice in staining buffer and stained with Goat F(ab)′2-anti-human-IgG(Fc)-PE conjugate for 30 minutes. The cells were washed and resuspended in staining buffer for analysis by flow cytometry.

[11] = target: T3, CD70 (Homo sapiens, UniProt P32970); assay: Epitope binding experiments using BIAcore
T3 sequence (P32970 1-193): T1 sequence
Experimental: Such cross-competing antibodies can be identified based on their ability to cross-compete with 2H5, 10B4, 8B5, 18E7, 69A7, 69A7Y or 1F4 in standard CD70 binding assays. For example, standard ELISA assays can be used in which a recombinant human CD70 protein is immobilized on the plate, one of the antibodies is fluorescently labeled and the ability of non-labeled antibodies to compete off the binding of the labeled antibody is evaluated. Additionally or alternatively, BIAcore analysis can be used to assess the ability of the antibodies to cross-compete.

Chain of human CD16 (FcRγIII) on effector cells (P08637 17-254): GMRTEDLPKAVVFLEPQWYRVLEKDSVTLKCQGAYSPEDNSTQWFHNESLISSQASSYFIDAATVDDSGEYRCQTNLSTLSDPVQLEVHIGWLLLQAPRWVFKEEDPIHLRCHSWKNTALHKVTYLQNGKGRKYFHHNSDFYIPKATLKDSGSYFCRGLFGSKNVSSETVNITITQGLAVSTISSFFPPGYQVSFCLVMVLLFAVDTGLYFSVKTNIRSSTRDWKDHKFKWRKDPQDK

B1: anti-CD70 human monoclonal antibody 8B5 (antibody, V domains shown)
VH: QVQLVESGGGVVQPGRSLRLSCATSGFTFSDYGMHWVRQAPGKGLEWVAVIWYDGSNKYYADSVKGRFTISRDNSKKTLSLQMNSLRAEDTAVYYCARDSIMVRGDYWGQGTLVTVSS
VL: DIQMTQSPSSLSASVGDRVTITCRASQGISSWLAWYQQKPEKAPKSLIYAASSLQSGVPSRFSGSGSGTDFTLTISSLQPEDFATYYCQQYNSYPLTFGGGTKVEIK
notes: Human IgG from hybridoma
B1 was tested, and the Kd [1] was roughly 5.1 nM.

B2: anti-CD70 human monoclonal antibody 18E7 (antibody, V domains shown)
VH: B1 VH with T24A, Y32H, K77N, S80Y
VL: B1 VL
notes: Human IgG from hybridoma
For B2, the “EC50 (read off the curve)” value [2] was roughly 7 nM and the Kd [1] was roughly 1.5 nM.

B3: anti-CD70 human monoclonal antibody 2H5 (antibody, IgG1, V domains shown)
VH: QVQLVESGGGVVQPGRSLRLSCAASGFTFSSYIMHWVRQAPGKGLEWVAVISYDGRNKYYADSVKGRFTISRDNSKNTLYLQMNSLRAEDTAVYYCARDTDGYDFDYWGQGTLVTVSS
VL: EIVLTQSPATLSLSPGERATLSCRASQSVSSYLAWYQQKPGQAPRLLIYDASNRATGIPARFSGSGSGTDFTLTISSLEPEDFAVYYCQQRTNWPLTFGGGTKVEIK
notes: Human IgG with kappa light chain; also called HuMAb 2H5; 2H5 IgG1
With B3 the “EC50 (read off the curve)” value [3] was roughly 8 nM, the “EC50 (read off the curve)” value [4] was roughly 0.06 µg/mL and the “EC50 of decrease in ^3H-thymidine incorporation, Hum-Zap internalization assay on 786-O cells” value [5] was 0.9 nM. For the same molecule, the “EC50 (read off the curve)” value [2] was roughly 5 nM, the EC50 [6] was 1.33 nM and the EC50 [7] was 1.33 nM. It also gave a Kd [1] of roughly 2.1 nM.

B4: 2H5 Fab: Fab fragment of anti-CD70 antibody 2H5 (antibody, V domains shown)
VH: B3 VH
VL: B3 VL
In the case of B4, the “functional blocking of CD70 costimulated T cell proliferation” value [8] is reported as “complete lack of functional blocking activity”.

B5: nonfucosylated anti-CD70 human monoclonal antibody 2H5 (antibody, V domains shown)
VH: B3 VH
VL: B3 VL
notes: also called 2H5 NF; 2H5nf
B5 was tested, and the “amount of anti-CD16 antibody 3G8 needed to reverse the inhibition of peptide specific CD8+ T cell expansion, against 2H5” value [9] was roughly 1000 fold, the “potency in lysis of activated human B cells against 2H5, ^51Cr-release ADCC assay with anti-CD16 antibody 3G8” value [9] was roughly 10 fold and the “EC50 (read off the curve)” value [10] was roughly 0.2 µg/mL.

B6: 69A7Y: same as 69A7 with C to Y mutation at VH position 100; VH SEQ ID NO:73, VL SEQ ID NO:11 (antibody, listed as Homo sapiens, V domains shown)
VH: QVQLQESGPGLVKPSETLSLTCTVSGGSVSSDYYYWSWIRQPPGKGLEWLGYIYYSGSTNYNPSLKSRVTISVDTSKNQFSLKLRSVTTADTAVYYCARGDGDYGGNYFDYWGQGTLVTVSS
VL: B3 VL with Y49F, T92S
In the case of B6, the “epitope on CD70” value [11] is reported as “distinct epitopes”.

B7: 2H5 F(ab′)2: F(ab′)2 fragment of anti-CD70 antibody 2H5 (antibody, V domains shown)
VH: B3 VH
VL: B3 VL
B7 was tested, and the “functional blocking of CD70 costimulated T cell proliferation” value [8] was “reduced functional blocking efficacy”.

B8: anti-CD70 human monoclonal antibody 10B4 (antibody, V domains shown)
VH: QIQLVESGGGVVQPGRSLRLSCAASGFTFGYYAMHWVRQAPGKGLEWVAVISYDGSIKYYADSVKGRFTISRDNSKNTLYLQMNSLRAEDTAVYYCAREGPYSNYLDYWGQGTLVTVSS
VL: AIQLTQSPSSLSASVGDRVTITCRASQGISSALAWYQQKPGKAPKFLIYDASSLESGVPSRFSGSGSGTDFTLTISSLQPEDFATYYCQQFNSYPFTFGPGTKVDIK
notes: Human IgG from hybridoma
For B8, the “EC50 (read off the curve)” value [3] was roughly 4 nM, the “EC50 (read off the curve)” value [4] was roughly 0.05 µg/mL and the “EC50 (read off the curve)” value [2] was roughly 2 nM. The Kd [1] was roughly 1.6 nM.

Source: US20100150950A1, “HUMAN ANTIBODIES THAT BIND CD70 AND USES THEREOF” (Medarex, Inc., priority 2006, published 2010)
